According to US9567369B2, “Method of treating metastatic cancer” (A.T. Still University, priority 2012, dated 2017):
Ends that are not written are not given here.

Legend:
[1] = test system: metastatic human melanoma 1205 Lu cells; assay: MTT growth assay of human 1205 Lu melanoma cells with peptide; assay type: cell-based; settings: peptide 10 uM, 1 time addition or day 1-3 addition; identical conditions as for B16
Experimental: B16F10 melanoma cells were obtained from the ATCC. Human 1205 Lu metastatic melanoma cell line was received from Robert Baer, PhD, a collaborator with our laboratory here at ATSU. Growth was in RPMI 1640 media supplemented with FBS (10%) and penicillin, streptomycin, amphotericin antibiotics (1%) (Sigma). Cells were maintained in a humidified incubator at 37° C. with 5% CO2.
The growth of B16F10 melanoma cells by the MTT method was performed with the addition of 10 uM peptide to the melanoma cells in standard 96-well culture plates. Cells were cultured in media for 4 days after seeding at about 1000 cells per well. After growth the culture media was replaced with media containing 0.5 mg/ml MTT solution and incubated for 4 hours at 37° C. The MTT solution was then removed and the residual dye was solubilized in 100 ul isopropanol for 15 minutes before reading the O.D. at 570 nm.

protein kinase C (PKC) = assay: Inhibition of protein kinase C activity
papain = molecular target: T1, papain (Carica papaya, UniProt P00784); settings: at 160 uM; cited from earlier work
T1 sequence (P00784 134-345): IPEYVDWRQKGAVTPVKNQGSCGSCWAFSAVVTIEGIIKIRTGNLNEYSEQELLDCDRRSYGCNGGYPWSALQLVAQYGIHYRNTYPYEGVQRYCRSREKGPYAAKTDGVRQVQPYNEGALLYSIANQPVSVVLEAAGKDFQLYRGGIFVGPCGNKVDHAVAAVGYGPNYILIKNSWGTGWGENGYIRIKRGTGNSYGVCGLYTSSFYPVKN

B16 melanoma cells = assay: Boyden chamber-type migration assay, Cystatin C overexpressing clone cc6 versus control plasmid clone pc2; assay type: cell-based, murine; settings: B16 melanoma cells overexpressing Cystatin C (clone cc6) compared to control plasmid transfected (pc2); bFGF chemotactic factor
From the text: (§1) The Cystatin C cDNA was amplified from B16F10 melanoma cells by PCR amplification of reverse transcribed total RNA isolated from B16 F10 melanoma cells in culture. The primers used for the amplification were derived from 5′ and 3′ sequences for murine Cystatin C from Solem et al. (18). The PCR product corresponding to the expected size was agarose gel purified and ligated into pcDNA3 expression plasmid for further analysis. The plasmid was sent to for sequence analysis at the University of Chicago and the sequence analysis produced a cDNA sequence which exactly matched murine Cystatin C cDNA sequence (19). Transfection of the cystatin plasmid or pcDNA3 plasmid was carried out with Lipofectamine™ reagent (Invitrogen) by the manufacturer's instructions. Isolated cell colonies, which had grown following Geneticin® (1 mg/ml) selection were trypsized in glass cloning rings and transferred to multi-well tissue culture dishes for expansion in culture.
Cells (2×104) are placed into the top well of the Boyden chamber in cell culture media while media plus bFGF chemotactic factor (25 ng/ml) is placed into the lower well of the chamber. Quantitation is through direct microscopic counting of 10-20 fields of crystal violet stained cells per filter.

[2] = test system: MARCKS phosphorylation in B16F10 melanoma cells; assay: MARCKS phosphorylation by western blot with phospho-antibody probing; assay type: cell-based; settings: murine Cystatin C overexpressing clone cc6 B16F10 melanoma cells vs control
From the text: as §1
For analysis of B16 melanoma proteins, melanoma cell cultures were lysed with lysis buffer and extracts were centrifuged at 10K rpm for 5 minutes. Protein was measured by Lowry assay and 40 ug of protein was loaded per lane on 10% SDS-PAGE gels for analysis. After electrophoresis, the proteins were transferred to PVDF membranes which were first blocked with 2% BSA in TBST buffer. […]

For “RQIKIWFPNRRMKWKKAYRKQLVAGVNYFFDVH [penetratin linked to active peptide]”, the “growth of human 1205 Lu melanoma cell line” value [1] was “significantly inhibits”.

For “YRKQLVAGVNYFFDVH (listed as Mus musculus) [therapeutic peptide, Therapeutic peptide derived from mouse Cystatin C with the first A substituted by Y]”, the “inhibition of protein kinase C (PKC) activity” value (protein kinase C (PKC)) is given as “inhibits” and the inhibition of papain (papain) is given as 20%.

B1: Cystatin C: natural cysteine protease inhibitor; murine Cystatin C cDNA overexpressed from pcDNA3 plasmid in B16F10 melanoma cells (clone cc6) (protein, UniProt P21460 21-140, looked up)
Cystatin-C: ATPKQGPRMLGAPEEADANEEGVRRALDFAVSEYNKGSNDAYHSRAIQVVRARKQLVAGVNYFLDVEMGRTTCTKSQTNLTDCPFHDQPHLMRKALCSFQIYSVPWKGTHSLTKFSCKNA
In the case of B1, the inhibition of migration (B16 melanoma cells) is reported as roughly 80% and the “average level of MARCKS phosphorylation, fold less” value [2] is reported as 3-5 fold.
